Common to all, as to assay: fluorescence anisotropy
(Polarisation of emitted light reports the rotation of a fluorescent probe.)

The target of data set [1] is NCp7 (mature nucleocapsid) (HIV-1 NL4-3, UniProt P12493 378-432).
The target in the next data set is NCp15 WT (NCp7-SP2-p6) (HIV-1 NL4-3, UniProt P12493 378-500).
For the next data set, the target named is NCp9 (NCp7-SP2) (HIV-1 NL4-3, UniProt P12493 378-448).

From PMC4252486 come the findings set out here.

As for AGCTGCTTTTTGCCTGTACT (ssDNA) [JL936 (20-nt ssDNA)], the Kd came out at 176 nM in data set [1], 151 nM with NCp15 WT (NCp7-SP2-p6) and 45 nM with NCp9 (NCp7-SP2).

A word on the Kd: it is a measure of binding affinity in units of concentration.
